Measurements published in publication PMC4529466, “Intradermal insulin infusion achieves faster insulin action than subcutaneous infusion for 3-day wear” (Drug Delivery and Translational Research, 2015).

Assay: Safety: adverse events, hypoglycemia, Draize erythema and edema scoring of infusion site
Assay type: in vivo, human (T1DM patients)
Protocol: Safety evaluations comprised of recording/classification of adverse events (including hypoglycemia, BG < 60 mg/dL with or without symptoms), physical examinations, clinical laboratory parameters, vital signs, subjective pain assessments, and assessments of local tissue response at the injection site. Visual observations of the area around the infusion site for skin irritation, insulin leakage, and any notable abnormalities were recorded after each bolus delivery. Upon device removal, the study physician checked the site of insulin administration, as well as 1 and 2 h later, and scored any local reactions according to the Draize erythema and edema scale.
Pharmacokinetic parameters were derived from baseline corrected blood insulin data. The pharmacokinetic and pharmacodynamic populations included all patients with data from either route across 3 days of infusion and patients exposed to at least one trial product with available data respective of PK/PD endpoints. PK and PD endpoints were analyzed using a linear mixed effects model (ANOVA) with sequence, application route, meal, and day as factors along with interactions. The safety population included all patients who had participated in any trial-related activity after randomization. VAS pain data comparisons were made between application routes at each assessment time point using a similar model. Safety evaluations were summarized by descriptive statistics.

insulin aspart
hypoglycemic episodes (BG below 60 mg/dL) (ID infusion): 67 episodes | subjects with hypoglycemic episodes (ID infusion): 22 subjects | instances with Draize erythema score 2 (ID route, within 2 h after set removal on day 3): 4/24 | hypoglycemic episodes (BG below 60 mg/dL) (SC infusion): 56 episodes | subjects with hypoglycemic episodes (SC infusion): 18 subjects | detected hypoglycemic episodes, total (across the study, both routes, majority asymptomatic): 123 episodes | Draize erythema and edema upon removal of infusion set (both routes, immediately after removal on day 3): essentially no detectable erythema or edema | adverse events (AEs), total (entire study, both routes, mild to moderate severity, none serious): 31
